# Assay results: the Human Domainome abundance scans (Beltran et al. 2025)
# ± gives the uncertainty stated by the source.
# B1: Homeobox protein cut-like 1, residues 941 to 1008; numbered along this chain, P39880 (parent)
# chain: QEVDTIELTRQVKEKLAKNGICQRIFGEKVLGLSQGSVSDMLSRPKPWSKLTQKGREPFIRMQLWLNG
# Variants of: B1
# Assay: abundance fitness (aPCA) (normalised: wild type 0, dead -1); higher = more abundant; growth selection in yeast, the domain comes from the species named
# Conditions: Homo sapiens
row,Variant,abundance fitness
1,QWVDTIELTRQVKEKLAKNGICQRIFGEKVLGLSQGSVSDMLSRPKPWSKLTQKGREPFIRMQLWLNG,-0.738 ± 0.033
2,QYVDTIELTRQVKEKLAKNGICQRIFGEKVLGLSQGSVSDMLSRPKPWSKLTQKGREPFIRMQLWLNG,-0.329 ± 0.03
3,QEADTIELTRQVKEKLAKNGICQRIFGEKVLGLSQGSVSDMLSRPKPWSKLTQKGREPFIRMQLWLNG,-0.133 ± 0.061
4,QECDTIELTRQVKEKLAKNGICQRIFGEKVLGLSQGSVSDMLSRPKPWSKLTQKGREPFIRMQLWLNG,-0.486 ± 0.17
5,QEDDTIELTRQVKEKLAKNGICQRIFGEKVLGLSQGSVSDMLSRPKPWSKLTQKGREPFIRMQLWLNG,-0.174 ± 0.094
6,QEEDTIELTRQVKEKLAKNGICQRIFGEKVLGLSQGSVSDMLSRPKPWSKLTQKGREPFIRMQLWLNG,-0.037 ± 0.093
7,QEFDTIELTRQVKEKLAKNGICQRIFGEKVLGLSQGSVSDMLSRPKPWSKLTQKGREPFIRMQLWLNG,-0.063 ± 0.073
8,QEGDTIELTRQVKEKLAKNGICQRIFGEKVLGLSQGSVSDMLSRPKPWSKLTQKGREPFIRMQLWLNG,-0.154 ± 0.058
9,QEHDTIELTRQVKEKLAKNGICQRIFGEKVLGLSQGSVSDMLSRPKPWSKLTQKGREPFIRMQLWLNG,-0.199 ± 0.12
10,QEIDTIELTRQVKEKLAKNGICQRIFGEKVLGLSQGSVSDMLSRPKPWSKLTQKGREPFIRMQLWLNG,0.19 ± 0.091
11,QEKDTIELTRQVKEKLAKNGICQRIFGEKVLGLSQGSVSDMLSRPKPWSKLTQKGREPFIRMQLWLNG,-0.136 ± 0.098
12,QELDTIELTRQVKEKLAKNGICQRIFGEKVLGLSQGSVSDMLSRPKPWSKLTQKGREPFIRMQLWLNG,0.008 ± 0.052
13,QEMDTIELTRQVKEKLAKNGICQRIFGEKVLGLSQGSVSDMLSRPKPWSKLTQKGREPFIRMQLWLNG,-0.045 ± 0.074
14,QENDTIELTRQVKEKLAKNGICQRIFGEKVLGLSQGSVSDMLSRPKPWSKLTQKGREPFIRMQLWLNG,-0.335 ± 0.1
15,QEPDTIELTRQVKEKLAKNGICQRIFGEKVLGLSQGSVSDMLSRPKPWSKLTQKGREPFIRMQLWLNG,-0.111 ± 0.07
16,QEQDTIELTRQVKEKLAKNGICQRIFGEKVLGLSQGSVSDMLSRPKPWSKLTQKGREPFIRMQLWLNG,-0.032 ± 0.076
17,QERDTIELTRQVKEKLAKNGICQRIFGEKVLGLSQGSVSDMLSRPKPWSKLTQKGREPFIRMQLWLNG,-0.051 ± 0.061

row,Variant,abundance fitness
1,QESDTIELTRQVKEKLAKNGICQRIFGEKVLGLSQGSVSDMLSRPKPWSKLTQKGREPFIRMQLWLNG,-0.067 ± 0.058
2,QETDTIELTRQVKEKLAKNGICQRIFGEKVLGLSQGSVSDMLSRPKPWSKLTQKGREPFIRMQLWLNG,-0.112 ± 0.085
3,QEWDTIELTRQVKEKLAKNGICQRIFGEKVLGLSQGSVSDMLSRPKPWSKLTQKGREPFIRMQLWLNG,-0.528 ± 0.085
4,QEYDTIELTRQVKEKLAKNGICQRIFGEKVLGLSQGSVSDMLSRPKPWSKLTQKGREPFIRMQLWLNG,-0.227 ± 0.12
5,QEVATIELTRQVKEKLAKNGICQRIFGEKVLGLSQGSVSDMLSRPKPWSKLTQKGREPFIRMQLWLNG,-0.376 ± 0.05
6,QEVCTIELTRQVKEKLAKNGICQRIFGEKVLGLSQGSVSDMLSRPKPWSKLTQKGREPFIRMQLWLNG,-0.243 ± 0.12
7,QEVETIELTRQVKEKLAKNGICQRIFGEKVLGLSQGSVSDMLSRPKPWSKLTQKGREPFIRMQLWLNG,-0.093 ± 0.068
8,QEVFTIELTRQVKEKLAKNGICQRIFGEKVLGLSQGSVSDMLSRPKPWSKLTQKGREPFIRMQLWLNG,-0.35 ± 0.072
9,QEVGTIELTRQVKEKLAKNGICQRIFGEKVLGLSQGSVSDMLSRPKPWSKLTQKGREPFIRMQLWLNG,-0.312 ± 0.066
10,QEVHTIELTRQVKEKLAKNGICQRIFGEKVLGLSQGSVSDMLSRPKPWSKLTQKGREPFIRMQLWLNG,-0.346 ± 0.077
11,QEVITIELTRQVKEKLAKNGICQRIFGEKVLGLSQGSVSDMLSRPKPWSKLTQKGREPFIRMQLWLNG,-0.503 ± 0.095
12,QEVLTIELTRQVKEKLAKNGICQRIFGEKVLGLSQGSVSDMLSRPKPWSKLTQKGREPFIRMQLWLNG,-0.572 ± 0.048
13,QEVMTIELTRQVKEKLAKNGICQRIFGEKVLGLSQGSVSDMLSRPKPWSKLTQKGREPFIRMQLWLNG,-0.153 ± 0.056
14,QEVNTIELTRQVKEKLAKNGICQRIFGEKVLGLSQGSVSDMLSRPKPWSKLTQKGREPFIRMQLWLNG,-0.097 ± 0.067
15,QEVPTIELTRQVKEKLAKNGICQRIFGEKVLGLSQGSVSDMLSRPKPWSKLTQKGREPFIRMQLWLNG,-0.265 ± 0.062
16,QEVQTIELTRQVKEKLAKNGICQRIFGEKVLGLSQGSVSDMLSRPKPWSKLTQKGREPFIRMQLWLNG,-0.328 ± 0.061
